From US20180251503A1 (Memorial Sloan Kettering, published 2018)

B1: GD2xCD3 bispecific fusion protein (scFv5F11-(G4S)3-scFvhOKT3, Y-BT, without dimerization component) (bispecific antibody)
scFv: QVQLQQSGPELVKPGASVKISCKTSGYKFTEYTMHWVKQSHGKCLEWIGGINPNNGGTNYNQKFKGKATLTVDKSSSTAYMELRSLTSEDSAVYYCARDTTVPYAYWGQGTTVTVSSGGGGSGGGGSGGGGSDIELTQSPAIMSASPGEKVTMTCSASSSISYMHWYQQKPGTSPKRWIYDTSKLASGVPARFSGSGSGTSYSLTISSMEAEDAATYYCHQRSSYPLTFGCGTKLEIKRASTKGPGGGGSGGGGSGGGGSQVQLVQSGGGVVQPGRSLRLSCKASGYTFTRYTMHWVRQAPGKGLEWIGYINPSRGYTNYNQKFKDRFTISRDNSKNTAFLQMDSLRPEDTGVYFCARYYDDHYCLDYWGQGTPVTVSSGGGGSGGGGSGGGGSDIQMTQSPSSLSASVGDRVTITCSASSSVSYMNWYQQTPGKAPKRWIYDTSKLASGVPSRFSGSGSGTDYTFTISSLQPEDIATYYCQQWSSNPFTFGQGTKLQITRHHHHHH
B2: GD2xCD3-HDD bispecific fusion protein (scFv5F11-scFvhOKT3 with HNF-1alpha dimerization component, Y-BT-HDD) (bispecific antibody)
scFv: QVQLQQSGPELVKPGASVKISCKTSGYKFTEYTMHWVKQSHGKCLEWIGGINPNNGGTNYNQKFKGKATLTVDKSSSTAYMELRSLTSEDSAVYYCARDTTVPYAYWGQGTTVTVSSGGGGSGGGGSGGGGSDIELTQSPAIMSASPGEKVTMTCSASSSISYMHWYQQKPGTSPKRWIYDTSKLASGVPARFSGSGSGTSYSLTISSMEAEDAATYYCHQRSSYPLTFGCGTKLEIKRASTKGPGGGGSGGGGSGGGGSQVQLVQSGGGVVQPGRSLRLSCKASGYTFTRYTMHWVRQAPGKGLEWIGYINPSRGYTNYNQKFKDRFTISRDNSKNTAFLQMDSLRPEDTGVYFCARYYDDHYCLDYWGQGTPVTVSSGGGGSGGGGSGGGGSDIQMTQSPSSLSASVGDRVTITCSASSSVSYMNWYQQTPGKAPKRWIYDTSKLASGVPSRFSGSGSGTDYTFTISSLQPEDIATYYCQQWSSNPFTFGQGTKLQITRTPLGDTTHTSGMVSKLSQLQTELLAALLESGLSKEALIQALGEGSGGAPHHHHHH
B3: Humanized OKT3 IgG (parental humanized OKT3 antibody) (antibody, V domains shown)
VH: QVQLVQSGGGVVQPGRSLRLSCKASGYTFTRYTMHWVRQAPGKGLEWIGYINPSRGYTNYNQKFKDRFTISRDNSKNTAFLQMDSLRPEDTGVYFCARYYDDHYCLDYWGQGTPVTVSS
VL: DIQMTQSPSSLSASVGDRVTITCSASSSVSYMNWYQQTPGKAPKRWIYDTSKLASGVPSRFSGSGSGTDYTFTISSLQPEDIATYYCQQWSSNPFTFGQGTKLQITR

Target: CD3 on T cells (Jurkat cells; purified human T cells) (human, UniProt P07766 23-207; P09693 23-182; P04234 22-171)
Test: cell-based or functional assay

Which “IFN-γ release from human T cells (no tumor cells), ELISA” value does the source give for B1 here?
Its value is 1.7 pg/mL.

And the “IL-2 release from human T cells (no tumor cells), ELISA” value?
The value was 2 pg/mL.

And the “IL-10 release from human T cells (no tumor cells), ELISA” value?
The value was 3.6 pg/mL.

And the “TNF-α release from human T cells (no tumor cells), ELISA” value?
The value was 7.9 pg/mL.

How did the “IFN-γ release from human T cells (no tumor cells), ELISA” value turn out when B2 was run?
Its value is 2.1 pg/mL.

What about the “IL-2 release from human T cells (no tumor cells), ELISA” value of the same binder?
The value was 2.2 pg/mL.

And the “IL-10 release from human T cells (no tumor cells), ELISA” value?
Its value is 2.1 pg/mL.

And the “TNF-α release from human T cells (no tumor cells), ELISA” value?
The value was 7.6 pg/mL.

What does the source list for B3?
IFN-γ release from human T cells (no tumor cells), ELISA: 228 pg/mL; IL-2 release from human T cells (no tumor cells), ELISA: 36.5 pg/mL; IL-10 release from human T cells (no tumor cells), ELISA: 29.8 pg/mL; TNF-α release from human T cells (no tumor cells), ELISA: 86.7 pg/mL
